Data reported in paper PMC4855518 (Nature, 2016).

Molecular target: G. thermodenitrificans SecYE (Geobacillus thermodenitrificans NG80-2, UniProt A4IJK8;A4IJH4)
Assay: SEC

B1: nanobody AYC08 (VHH)
VHH: QVQLVETGGGLVQPGGSLRLSCGASGSIFNMYAMGWYRQAPGKQREVVARIATDDSTMYPDSVKGRFTISRDNAKNTVYLQMNSLKPEDTAVYYCYYQRTVMSQPYWGQGTQVTVSS
binding result: binds
